This is an account of results in publication PMC11417371, “ENL reads histone β-hydroxybutyrylation to modulate gene transcription” (Nucleic Acids Research, 2024).

In test [1] the target is Probe H3K9bhb (Kbhb-installed histone H3 peptide on gold nanoparticles with photo-cross-linker-linked PEG). The test can be described thus: affinity purification with mass spectrometry; photoaffinity enrichment with probes H3K9bhb and H3K9, read out by parallel reaction monitoring (PRM) mass spectrometry.
For a further test, the target named is T1, GAS41 (UniProt O95619 1-227).
T1 construct: GAS41 (YEATS4), a YEATS domain-containing protein
T1 sequence (O95619 whole entry, the tested form may be a part): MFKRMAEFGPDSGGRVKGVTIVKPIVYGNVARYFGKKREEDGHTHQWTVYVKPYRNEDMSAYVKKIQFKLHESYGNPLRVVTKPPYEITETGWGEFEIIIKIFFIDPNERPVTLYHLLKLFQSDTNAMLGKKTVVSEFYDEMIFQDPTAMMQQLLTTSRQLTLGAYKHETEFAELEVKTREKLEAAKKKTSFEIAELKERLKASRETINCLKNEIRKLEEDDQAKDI
In words: ITC; MicroCal PEAQ ITC, 15°C; protein at 100 μM dropped into the 1000 μM peptide, 19 drops; one set of binding sites model. The following applies: both partners purified.

A further test has as its target T2, AF9 (UniProt P42568 1-568).
T2 construct: AF9 (MLLT3), a YEATS domain-containing protein
T2 sequence (looked up): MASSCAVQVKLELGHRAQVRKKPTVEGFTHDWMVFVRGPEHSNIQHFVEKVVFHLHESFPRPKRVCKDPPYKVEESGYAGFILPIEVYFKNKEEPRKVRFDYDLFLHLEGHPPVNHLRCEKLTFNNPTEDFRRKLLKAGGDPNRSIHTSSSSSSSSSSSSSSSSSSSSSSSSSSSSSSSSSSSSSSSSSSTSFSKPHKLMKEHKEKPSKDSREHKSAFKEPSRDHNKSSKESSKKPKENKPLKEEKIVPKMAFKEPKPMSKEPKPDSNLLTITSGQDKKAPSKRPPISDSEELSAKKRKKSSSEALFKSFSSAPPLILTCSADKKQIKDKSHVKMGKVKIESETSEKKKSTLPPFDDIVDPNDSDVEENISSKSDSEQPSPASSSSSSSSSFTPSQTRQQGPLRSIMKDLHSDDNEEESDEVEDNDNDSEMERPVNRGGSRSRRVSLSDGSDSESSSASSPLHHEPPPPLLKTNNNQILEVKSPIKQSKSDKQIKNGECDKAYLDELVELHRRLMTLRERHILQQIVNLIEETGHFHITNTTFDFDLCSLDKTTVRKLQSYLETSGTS
The test is described as above. The following applies: both partners purified.

B1: ENL (endogenous) (natural protein)
chain: MDNQCTVQVRLELGHRAQLRKKPTTEGFTHDWMVFVRGPEQCDIQHFVEKVVFWLHDSFPKPRRVCKEPPYKVEESGYAGFIMPIEVHFKNKEEPRKVCFTYDLFLNLEGNPPVNHLRCEKLTFNNPTTEFRYKLLRAGGVMVMPEGADTVSRPSPDYPMLPTIPLSAFSDPKKTKPSHGSKDANKESSKTSKPHKVTKEHRERPRKDSESKSSSKELEREQAKSSKDTSRKLGEGRLPKEEKAPPPKAAFKEPKMALKETKLESTSPKGGPPPPPPPPPRASSKRPATADSPKPSAKKQKKSSSKGSRSAPGTSPRTSSSSSFSDKKPAKDKSSTRGEKVKAESEPREAKKALEVEESNSEDEASFKSESAQSSPSNSSSSSDSSSDSDFEPSQNHSQGPLRSMVEDLQSEESDEDDSSSGEEAAGKTNPGRDSRLSFSDSESDNSADSSLPSREPPPPQKPPPPNSKVSGRRSPESCSKPEKILKKGTYDKAYTDELVELHRRLMALRERNVLQQIVNLIEETGHFNVTNTTFDFDLFSLDETTVRKLQSCLEAVAT
The molecule B1 returned a fold enrichment over probe H3K9 in test [1] of 3.9 fold.

B2: β-hydroxybutyryl histone H3 1-17 peptide (H3K9bhb) (peptide, UniProt P68431 2-18, looked up)
peptide: ARTKQTARKSTGGKAPR
modifications: β-hydroxybutyryl-lysine at K9
notes: histone H3, residues 1-17; The text calls the ITC peptides 'histone H3K14 (1–17) peptides', the legend 'H31-17 peptides'; also called H3K9bhb peptide; source: synthetic peptide (Beijing SciLight Biotechnology, HPLC purified)
In the case of B2, the Kd with GAS41 came out at 6.7 µM; with AF9 it was 11 µM.
